# In PMC9929448:
# T1: Bone morphogenetic protein 2 (BMP-2), wild type, mature form (human)
# T1 sequence (P12643 whole entry, looked up): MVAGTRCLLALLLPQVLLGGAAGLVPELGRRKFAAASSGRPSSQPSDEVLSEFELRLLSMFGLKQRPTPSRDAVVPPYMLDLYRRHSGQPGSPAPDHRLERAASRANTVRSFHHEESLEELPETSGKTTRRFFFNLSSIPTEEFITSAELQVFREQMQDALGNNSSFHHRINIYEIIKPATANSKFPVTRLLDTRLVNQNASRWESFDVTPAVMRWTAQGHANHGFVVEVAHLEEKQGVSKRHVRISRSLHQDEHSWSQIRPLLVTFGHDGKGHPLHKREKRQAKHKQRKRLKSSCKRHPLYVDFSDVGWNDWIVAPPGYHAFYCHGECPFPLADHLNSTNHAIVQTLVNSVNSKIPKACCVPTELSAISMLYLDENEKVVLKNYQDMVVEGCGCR
# Assays:
# [1] = target: T1, Bone morphogenetic protein 2 (BMP-2), wild type, mature form (human)
# [2] = target: BMP-2 N102D mutant, mature form (human)
binder,measurement,setting,value
"Noggin (residues 28-232) (natural protein, biotin (biotinylated Noggin in the BLI experiments); methionine oxidation, mainly on the N-terminal methionine, in part of the sample) MQHYLHIRPAPSDNLPLVDLIEHPDPIFDPKEKDLNETLLRSLLGGHYDPGFMATSPPEDRPGGGGGAAGGAEDLAELDQLLRQRPSGAMPSEIKGLEFSEGLAQGKKQRLSKKLRRKLQMWLWSQTFCPVLYAWNDLGSRFWPRYVKVGSCFSKRSCSVPEGMVCKPSKSVHLTVLRWRCQRRGGQRCGWIPIQYPIISECKCSC","IC50 of Noggin (0.16 to 160 nM) on ALP activity and Alizarin Red staining (calcium deposition) of ATDC5 cells stimulated with 10 nM WT BMP-2, day 7",[1],8 nM
same,"IC50 of Noggin (0.16 to 160 nM) on ALP activity and Alizarin Red staining (calcium deposition) of ATDC5 cells stimulated with 10 nM N102D BMP-2, day 7",[2],8 nM
